Results: article PMC8549803, “Dithiolane quartets: thiol-mediated uptake enables cytosolic delivery in deep tissue” (Chemical Science, 2021)
“Also recorded” adds a separate entry of the source. Like-named read-outs stand apart in the source and are kept apart here.

Experiments:
HGM cells = test: 2D HC-CAPA (chloroalkane penetration assay), cytosolic delivery in 2D cell culture; assay type: cell-based; conditions: 4 h; for CP50, half maximal cell-penetration concentration: HGM cells (HeLa stably expressing HaloTag-GFP-Mito), complexes 0 to max 20 μM in Leibovitz's, 37 °C, then HRO 2 5 μM 15 min, high-content fluorescence imaging, Hill analysis of DRCs, duplicates; for Uptake activity in 2D CAPA, in words: HGM cells, up to 20 μM
Experimental: Cytosolic delivery into 2D cell culture was determined first using the chloroalkane penetration assay (CAPA).[55–57] This assay has been introduced recently by Kritzer et al. as a reliable tool to quantitatively measure cytosolic delivery.[55–57] The CAPA method operates with HGM cells, i.e. HeLa cells that stably express a fusion protein of HaloTag and GFP on mitochondria (Fig. 1c). Chloroalkylated transporters that reach the cytosol will react with these HaloTags, while all unused HaloTags will react with subsequently added chloroalkylated TAMRA 2. The result is decreasing TAMRA fluorescence with increasing uptake of transporters. Automated high-content high-throughput imaging has been introduced to measure TAMRA fluorescence only inside of healthy cells and generate high-precision dose–response curves (DRCs, Fig. 3) while simultaneously reporting on cell viability.[50] The uptake efficiency is reported as CP50 value, that is the transporter concentration needed to inhibit HaloTag labeling with 2 by 50%, determined by the Hill analysis of DRCs. In conventional 2D cell culture, complex 1 afforded CP50 = 3.6 ± 0.3 μM (Fig. 2, 3a, filled circles, Table 1).
Complex 22 was similarly prepared using 6 µL of peptide 12 (10 mM in DMSO, 3 […]
Complex 23 was similarly prepared using 4 µL of peptide 13 (10 mM in DMSO, 2 […]
Complex 24 was similarly prepared using 2 µL each of peptides 12 and 13 (10 mM in DMSO, 1 equivalent each).
Complex 25 was similarly prepared using 4 µL of peptide 14 (10 mM in DMSO, 2 […]
Complex 26 was similarly prepared using 2 µL each of peptides 13 and 14 (10 mM in […]
HeLa cells stably expressing the HaloTag-GFP-Mito fusion protein (HGM): The cells were originally designed by the Chenoweth lab as described in ref. S10. They were cultured using the described procedure in ref. S4.
3.2.1 General HC-CAPA protocol
As in ref. S11, HGM cells were seeded at 8 ×10^4 cells/mL in FluoroBrite DMEM + 10% FBS on μ-Plates 96-well ibiTreat sterile and kept at 37 °C with 5% CO2 overnight. Next day, cells were washed with PBS ([…]) and the media were exchanged to Leibovitz’s (4 × 150 μL/well) using a plate washer, keeping a final volume of 135 μL/well. Then, serial dilutions of the corresponding complexes 1, 15-26 in PBS were prepared in a 96-well V-bottom plate and added to the μ-Plate containing the cells (15 μL/well, 10x final concentration in PBS) to reach a final volume of 150 μL/well (0 to maximum 20 μM). Cells were incubated for 4 h at […]
37 °C with 5% CO2. After this, cells were washed again and HRO 2 was added (15 μL/well, 50 μM in PBS) to reach a final volume of 150 μL/well (5 μM), except for the control wells, where only PBS was added (15 μL/well). After 15 min of incubation at 37 °C with 5% CO 2, the plate was washed again. Then, Hoechst 33342 was added (15 μL/well, 170 μM in PBS) to reach a final volume of 150 μL/well (17 μM). After 15 min of incubation at 37 °C with 5% CO2, the plate was washed one last time and the cells were kept in clean Leibovitz’s media.
During imaging, samples were kept at 37 °C with 5% CO2. A total of 16 images/well at 40x were recorded, using three channels: blue (excitation filter: 37 7/50 nm, emission filter: 477/60 nm, exposure time: 10 ms), green (excitation filter: 475/34 nm, emission filter: 536/40 nm, exposure time: 20 ms) and red (excitation filter: 531/40 nm, emission filter: 593/40 nm, […]
(§1) Duplicates were performed for each condition.
Fig. S2 Blue channel recording the Hoechst 33342 localization in the nuclei (left), green channel recording the GFP signal in the mitochondria (middle) and red channel recording the signal from HRO 2 (right) covalently attached to HaloTag protein in the mitochondr ia. Scale […]
3.2.2. HC-CAPA analysis protocol
As in ref. S11, for each cell, the DAPI and GFP channel images were used for the segmentation of the nuclei and whole cell body, respectively. Three successive filters have then been used for the cell selection process: […]

[1] = Solubility of streptavidin/peptide complexes in water; assay type: physicochemical
Experimental: However, this interpretation should not be overestimated because the CP50 = 2.5 ± 0.2 μM remained near those of single dithiolane quartets in 19 and 1.

HGM spheroids = test: 3D HC-CAPA, cytosolic delivery in multicellular spheroids; assay type: cell-based; conditions: for Penetration of HGM spheroids (suppression of emission of CAPA probe 2), in words: 20 μM, 6 h, then 2 for 45 min, cross-sectional CSDM images 80 μm from surface; for SP50, half maximal spheroid-penetration concentration: 3D HC-CAPA, HGM spheroids 350–400 μm, complexes 0 to max 20 μM, 2 or 6 h, 37 °C, then HRO 2 5 μM 45 min, average TAMRA intensity over entire spheroid, Hill analysis of DRCs, duplicates
Experimental: Spheroids of HGM cells with an average size of 350–400 μm were prepared in cell-repellent U-bottom 96-well plates following standard procedures (Fig. 4a).[1–26] In cross-sectional confocal spinning disc microscopy (CSDM) images taken 80 μm from the surface, GFP emission was homogeneously distributed (Fig. 4b). Similarly the homogeneous cross-sectional TAMRA emission upon addition of 2 was consistent with unhindered passive diffusion of the small, cationic CAPA probe across the spheroid (Fig. 4c, m, red circles, 1c). […] Line-scan analysis of the TAMRA intensity along the cross-section in the CSDM image gave an almost linear decrease (Fig. 4m, green squares). […] Comparison of the line-scan analyses for 20 μM 19 after 2 h and 6 h incubation illustrated how transporter 19 penetrates the spheroids with time from the periphery to the center as expected for operational transcytosis (Fig. 4m, l vs. i). […] At c ∼ SP50, thiol-mediated delivery decreases linearly with increasing depth because the limited amount of transporter 19 provided is gradually consumed by kinetically competing direct translocation and irreversible reaction with the HaloTags on the mitochondria of the cells on the way into the spheroids. […]
HGM cells were seeded at 5 × 10^3 cells/mL in FluoroBrite DMEM + 10% FBS on NunclonTM SpheraTM U-bottom 96-well sterile μ-Plates and kept at 37 °C with 5% CO2 for 3 days. After the spheroids were formed, the medium was exchanged to Leibovitz’s (6 × 200 μL/well) using a Biotek MultiFloTM FX plate washer, keeping a final volume of 135 μL/well.
Then, serial dilutions of the corresponding complexes 18-20 in PBS were prepared in a 96-well V-bottom plate and added to the μ-Plate containing the spheroids (15 μL/well, 10x final concentration in PBS) to reach a final volume of 150 μL/well (0 to maximum 20 μM). Cells were incubated for 2 or 6 h at 37 °C with 5% CO2. After this, cells were washed again and HRO 2 was added (15 μL/well, 50 μM in PBS) to reach a final volume of 150 μL/well (5 μM), except for the control wells, where only PBS was added (15 μL/well). After 45 min of incubation at 37 °C with 5% CO2, the plate was washed again. Then, the plate was kept for 1 h at 37 °C with 5% CO2 and was washed again. During imaging, samples were kept at 37 °C with 5% CO2. A z-stack of 19 images/well (10 μm per step) at 10x were recorded, using two channels: green (excitation filter: 475/34 nm, emission filter: 536/40 nm, exposure time: 200 ms) and red (excitation filter: 531/40 nm, emission filter: 593/40 nm, exposure time: 200 ms), […]
as §1
Fig. S4 TL channel (left), Green channel recording the GFP signal in the mitochondria (middle left) and red channel recording the signal from HRO 2 (middle right) covalently attached to HaloTag protein in the mitochondria. Merged images showing colocalization of G FP and HRO 2 signals (right). Images are 2D projections of all planes. Scale bar: 100 μm.
3.3.2 3D HC-CAPA analysis protocol
For each spheroid, the TL and green channel images were used for the segmentation of the object. A gaussian filter was applied to blur the image and allow the creation of the spheroid […]
Fig. S5 Green channel recording the GFP signal in the mitochondria (left), applied Gaussian filter (middle) to generate the spheroid mask in white (right). Images are 2D projections of all planes. Scale bar: 100 μm. […]
3.3.2 3D HC-CAPA results for uptake quantification […]

[2] = streptavidin/peptide complex in water

Substance: EEEEEE [compound 23, streptavidin 3/peptide 13 (EEEEEE) 1 : 2 complex]
- CP50, half maximal cell-penetration concentration (HGM cells): >20 µM
- Uptake activity in 2D CAPA, in words (HGM cells): inactive
- Solubility of complex in water, in words [1, 2]: soluble

Substance: EEEUUU [compound 19, 1 : 3 streptavidin 3/peptide 9 (EEEUUU) complex]
- CP50, half maximal cell-penetration concentration (HGM cells): 3.8 ± 0.2 µM
- Uptake activity in 2D CAPA, in words (HGM cells): preserved activity
- Penetration of HGM spheroids (suppression of emission of CAPA probe 2), in words (HGM spheroids): almost complete disappearance of all fluorescence; also recorded: suppressed fluorescence throughout the spheroid
- SP50, half maximal spheroid-penetration concentration (HGM spheroids): 5.3 ± 0.9 µM

Substance: EEUUUU [compound 21, 1 : 3 streptavidin 3/peptide 11 (EEUUUU) complex]
- CP50, half maximal cell-penetration concentration (HGM cells): 2.5 ± 0.2 µM
- Uptake activity in 2D CAPA, in words (HGM cells): most active of all transporters

Substance: EUEUEU [compound 1]
- CP50, half maximal cell-penetration concentration (HGM cells): 3.6 ± 0.3 µM
- Penetration of HGM spheroids (suppression of emission of CAPA probe 2), in words (HGM spheroids): suppressed fluorescence throughout the spheroid

Substance: EUEUeU [compound 16, 1 : 3 streptavidin 3/peptide 6 (EUEUeU) complex]
- CP50, half maximal cell-penetration concentration (HGM cells): 16 ± 2 µM

Substance: EUUUUU [streptavidin complex of EUUUUU peptide, insoluble, not finalized]
- Solubility of complex in water, in words [1]: insoluble in water

Substance: KKKKKK [compound 25, streptavidin 3/peptide 14 (KKKKKK) 1 : 2 complex, isostructural CPP control]
- CP50, half maximal cell-penetration concentration (HGM cells): 2.8 ± 0.3 µM
- Uptake activity in 2D CAPA, in words (HGM cells): in the range of the best dithiolane quartets
- Penetration of HGM spheroids (suppression of emission of CAPA probe 2), in words (HGM spheroids): failed to penetrate HGM spheroids

Substance: UUUEEE [compound 20, 1 : 3 streptavidin 3/peptide 10 (UUUEEE) complex]
- CP50, half maximal cell-penetration concentration (HGM cells): > 20 µM
- Uptake activity in 2D CAPA, in words (HGM cells): inactive
- SP50, half maximal spheroid-penetration concentration (HGM spheroids): 17 ± 6 µM

Substance: UUUUUU [compound 22]
- CP50, half maximal cell-penetration concentration (HGM cells): >20 µM
- Solubility of complex in water, in words [1, 2]: insoluble in water
